Measurements: paper PMC10374969, “SVCT2/SLC23A2 is a sodium-dependent urate transporter: functional properties and practical application” (The Journal of Biological Chemistry, 2023)

What was measured:
[1] = system: T1, O=c1[nH]c(=O)c2[nH]c(=O)[nH]c2[nH]1; assay: cells, lysate or membranes; type: cell-based, Homo sapiens; details: pH 10, Na+ Krebs-Ringer buffer, 37 °C, 5 min, 0-3 mM urate (not saturated), labelled compound
T1 construct: full-length wild type, 650 aa, C-terminal EGFP tag (pEGFP-N1), transiently expressed in HEK293 cells

[2] = system: T2, O=c1[nH]c(=O)c2[nH]c(=O)[nH]c2[nH]1; assay: cells, lysate or membranes; type: cell-based, Mus musculus; details: pH 10, Na+ Krebs-Ringer buffer, 37 °C, 5 min, 0-3 mM urate (not saturated), labelled compound
T2 construct: full-length, 648 aa, C-terminal EGFP tag (pEGFP-N1), transiently expressed in HEK293 cells

| Substance | Km [1] [mM] | Km [2] [mM] |
| --- | --- | --- |
| human SVCT2 (SVCT2/SLC23A2) (Homo sapiens) | 3.86 |  |
| mouse Svct2 (Svct2/Slc23a2) (Mus musculus) |  | 3.16 |
